Reference: US6617117B1, “MAP kinases: polypeptides, polynucleotides and uses thereof” (Medical Research Council, priority 1996, dated 2003)

Target: T1, SAPK3 (Rattus norvegicus, UniProt Q63538)
T1 sequence (Q63538 1-367): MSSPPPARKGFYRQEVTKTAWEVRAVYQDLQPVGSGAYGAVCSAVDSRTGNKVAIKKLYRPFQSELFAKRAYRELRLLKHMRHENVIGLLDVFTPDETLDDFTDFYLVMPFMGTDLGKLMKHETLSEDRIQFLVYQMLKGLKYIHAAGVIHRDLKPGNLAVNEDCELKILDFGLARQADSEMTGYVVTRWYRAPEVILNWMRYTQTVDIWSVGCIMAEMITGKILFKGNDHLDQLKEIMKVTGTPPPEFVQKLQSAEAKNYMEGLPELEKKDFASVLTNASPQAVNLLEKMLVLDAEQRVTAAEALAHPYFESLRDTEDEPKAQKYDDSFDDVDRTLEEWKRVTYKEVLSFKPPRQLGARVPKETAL
Assay: Activation of transfected myc epitope-tagged SAPK3 in KB and 293 cells, immunoprecipitation and MBP assay
Format: cell-based, human
Parameters: expressed in transfected cells; host or cells: human KB and 293 cells (vector pSG5)
Settings: FIG. 11A
Method: FIG. 11. SAPK3 is activated by cytokines and cellular stresses in KB and 293 cells. KB cells (A) or 293 cells (B) were transiently transfected with a DNA construct expressing a myc epitope-tagged SAPK3. Cells in DMEM were stimulated for 15 min with 0.5 M sorbitol (an osmotic shock), 20 ng/ml IL-1α, 100 ng/ml TNFa, 0.5 mM sodium arsenite (a chemical stress), 100 ng/ml of EGF or 300 ng/ml TPA, or for 30 min with […] anisomycin or 10 min with 100 ng/ml IGF-1. UV-C irradiation of cells was carried out at 60 J/m2 (KB cells) or 200 J/m2 (293 cells) and the cells then left for a further 30 min at 37° C. before lysis. The myc epitope-tagged SAPK3 was immunoprecipitated from cell lysates using the 9E10 monoclonal antibody and assayed with MBP as substrate. […] After UV-C irradiation, SAPK3 activity in the extracts was 0.18 U/mg (KB cells) and 0.1 U/mg (293 cells).
Cell culture and transient transfections. 293, KB and COS-7 cells were cultured in Dulbecco's modified Eagles' Medium (DMEM) supplemented with 10% foetal calf serum, at 37° C., in an atmosphere of 5% CO2. Transfections of 293 cells were carried out using the calcium-phosphate method. […]

B1: EGF: growth factor stimulus from Boehringer (protein, UniProt P01133 23-1207, looked up)
Pro-epidermal growth factor: PQHWSCPEGTLAGNGNSTCVGPAPFLIFSHGNSIFRIDTEGTNYEQLVVDAGVSVIMDFHYNEKRIYWVDLERQLLQRVFLNGSRQERVCNIEKNVSGMAINWINEEVIWSNQQEGIITVTDMKGNNSHILLSALKYPANVAVDPVERFIFWSSEVAGSLYRADLDGVGVKALLETSEKITAVSLDVLDKRLFWIQYNREGSNSLICSCDYDGGSVHISKHPTQHNLFAMSLFGDRIFYSTWKMKTIWIANKHTGKDMVRINLHSSFVPLGELKVVHPLAQPKAEDDTWEPEQKLCKLRKGNCSSTVCGQDLQSHLCMCAEGYALSRDRKYCEDVNECAFWNHGCTLGCKNTPGSYYCTCPVGFVLLPDGKRCHQLVSCPRNVSECSHDCVLTSEGPLCFCPEGSVLERDGKTCSGCSSPDNGGCSQLCVPLSPVSWECDCFPGYDLQLDEKSCAASGPQPFLLFANSQDIRHMHFDGTDYGTLLSQQMGMVYALDHDPVENKIYFAHTALKWIERANMDGSQRERLIEEGVDVPEGLAVDWIGRRFYWTDRGKSLIGRSDLNGKRSKIITKENISQPRGIAVHPMAKRLFWTDTGINPRIESSSLQGLGRLVIASSDLIWPSGITIDFLTDKLYWCDAKQSVIEMANLDGSKRRRLTQNDVGHPFAVAVFEDYVWFSDWAMPSVMRVNKRTGKDRVRLQGSMLKPSSLVVVHPLAKPGADPCLYQNGGCEHICKKRLGTAWCSCREGFMKASDGKTCLALDGHQLLAGGEVDLKNQVTPLDILSKTRVSEDNITESQHMLVAEIMVSDQDDCAPVGCSMYARCISEGEDATCQCLKGFAGDGKLCSDIDECEMGVPVCPPASSKCINTEGGYVCRCSEGYQGDGIHCLDIDECQLGEHSCGENASCTNTEGGYTCMCAGRLSEPGLICPDSTPPPHLREDDHHYSVRNSDSECPLSHDGYCLHDGVCMYIEALDKYACNCVVGYIGERCQYRDLKWWELRHAGHGQQQKVIVVAVCVVVLVMLLLLSLWGAHYYRTQKLLSKNPKNPYEESSRDVRSRRPADTEDGMSSCPQPWFVVIKEHQDLKNGGQPVAGEDGQAADGSMQPTSWRQEPQLCGMGTEQGCWIPVSSDKGSCPQVMERSFHMPSYGTQTLEGGVEKPHSLLSANPLWQQRALDPPHQMELTQ
modifications: Pro-epidermal growth factor
notes: growth factor stimulus from Boehringer
Activation of transfected SAPK3 (in words): more weakly
